Legend:
glucokinase-YN155 [1] = molecular target: glucokinase-YN155 (UniProt P17712); assay: BiFC assay; conditions: COS1 cells, 25 mM glucose, without dibutyryl cAMP; parent: est. 36; read off a plot
glucokinase-YN155 [2] = molecular target: glucokinase-YN155 (UniProt P17712); assay: BiFC assay; conditions: COS1 cells, 25 mM glucose, read off a plot

UniProt P17712, sequence (P17712 whole entry): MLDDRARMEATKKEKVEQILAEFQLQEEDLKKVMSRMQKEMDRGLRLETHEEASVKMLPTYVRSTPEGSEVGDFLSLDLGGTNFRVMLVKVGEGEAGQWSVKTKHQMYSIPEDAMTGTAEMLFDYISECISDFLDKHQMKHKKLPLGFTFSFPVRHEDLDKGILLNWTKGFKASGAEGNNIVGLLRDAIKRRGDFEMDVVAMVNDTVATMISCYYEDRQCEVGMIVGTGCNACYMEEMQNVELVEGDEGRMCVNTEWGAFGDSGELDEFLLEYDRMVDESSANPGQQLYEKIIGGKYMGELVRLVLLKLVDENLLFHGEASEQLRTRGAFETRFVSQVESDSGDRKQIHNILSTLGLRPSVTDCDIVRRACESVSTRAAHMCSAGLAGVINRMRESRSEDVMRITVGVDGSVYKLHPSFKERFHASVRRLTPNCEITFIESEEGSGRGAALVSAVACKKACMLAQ

Row | response (% transfected cells) (glucokinase-YN155 [1]) | response (% transfected cells) (glucokinase-YN155 [2]; 50 μM dibutyryl cAMP for 1 h, parent: est. 28) | response (% transfected cells) (glucokinase-YN155 [2]; without dibutyryl cAMP, parent: est. 36) | Substance
1 | 39 |  |  | wild-type PFK2/FBPase2-YC155 (from UniProt P07953) S32D
2 | 39 | 33 | 39 | wild-type PFK2/FBPase2-YC155 (from UniProt P07953) S32A
